Results: patent US20080261871A1, “Y2/Y4 Selective Receptor Agonists for Therapeutic Interventions” (priority 2004, published 2008)
No end group written: not given here.

What was measured:
anesthetized dogs = assay: in vivo; details: dog, iv
Description: (§1) At the highest dose a plasma levels of 100 nM was obtained in the dogs.

in vivo [1] = details: dog, iv, 100 ug/kg
Description: as §1

in vivo [2] = assay: in vivo; parameters: species or system cyno monkeys; details: cynomolgus monkey
Description: […]. […] […]. Apparently, the Y4 receptor activation—conceivably in the area postreama-prevents the emetic effect of the Y2 activation form the same compound. This property of a combined Y2-Y4 selective agonist is of great benefit for the treatment of obesity and associated conditions.

mice = assay: Acute food intake in mice after subcutaneous injection; type: in vivo; details: mice fasted 16 hours, sc
Description: Food and water were available ad libitum except just before experiments (see below). The mice were acclimatized to subcutaneous injections during the week before experiments started. Mice were used once each in the experiments. Just before administration the peptides were diluted in physiological saline and administered in 100 μL volume for subcutaneous administration. Results are expressed as mean +/−SE. Analysis of variance followed by Bonferroni's test were used to assess differences among groups.
A standard diet was used (CLEA Japan, Inc., Tokyo, Japan) and food intake was measured by subtracting uneaten food from the initially premeasured food after administration and checking for food spillage.

human Y1 receptor = molecular target: T1, human Y1 receptor (human, UniProt P25929 1-384); assay: cell-based or functional assay
T1 sequence (looked up): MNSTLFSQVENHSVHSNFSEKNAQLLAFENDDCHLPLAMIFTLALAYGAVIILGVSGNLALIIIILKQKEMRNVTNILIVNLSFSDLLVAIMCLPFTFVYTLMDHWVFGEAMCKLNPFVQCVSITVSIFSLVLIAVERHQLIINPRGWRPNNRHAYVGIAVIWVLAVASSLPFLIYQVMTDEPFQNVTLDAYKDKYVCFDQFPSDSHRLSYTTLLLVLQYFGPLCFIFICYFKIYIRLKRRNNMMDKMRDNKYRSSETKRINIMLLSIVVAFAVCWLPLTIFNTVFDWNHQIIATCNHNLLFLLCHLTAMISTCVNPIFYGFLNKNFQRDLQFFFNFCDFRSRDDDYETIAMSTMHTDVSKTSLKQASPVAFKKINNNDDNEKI

human Y2 receptor = molecular target: T2, human Y2 receptor (human, UniProt P49146 1-381); assay: cell-based or functional assay
T2 sequence (looked up): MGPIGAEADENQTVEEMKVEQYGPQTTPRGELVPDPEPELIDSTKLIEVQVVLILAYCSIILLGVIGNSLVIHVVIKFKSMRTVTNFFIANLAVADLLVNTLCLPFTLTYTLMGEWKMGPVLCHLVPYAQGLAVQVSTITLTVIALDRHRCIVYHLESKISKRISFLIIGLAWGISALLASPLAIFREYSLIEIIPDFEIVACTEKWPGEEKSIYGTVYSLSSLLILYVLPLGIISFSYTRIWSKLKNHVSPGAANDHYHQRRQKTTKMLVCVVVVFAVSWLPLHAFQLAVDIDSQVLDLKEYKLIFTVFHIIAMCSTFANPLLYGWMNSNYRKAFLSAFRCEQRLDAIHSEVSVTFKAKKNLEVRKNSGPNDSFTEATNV

human Y4 receptor = human Y4 receptor (human, UniProt P50391 1-375); assay: cell-based or functional assay
human Y4 receptor, sequence (P50391 whole entry): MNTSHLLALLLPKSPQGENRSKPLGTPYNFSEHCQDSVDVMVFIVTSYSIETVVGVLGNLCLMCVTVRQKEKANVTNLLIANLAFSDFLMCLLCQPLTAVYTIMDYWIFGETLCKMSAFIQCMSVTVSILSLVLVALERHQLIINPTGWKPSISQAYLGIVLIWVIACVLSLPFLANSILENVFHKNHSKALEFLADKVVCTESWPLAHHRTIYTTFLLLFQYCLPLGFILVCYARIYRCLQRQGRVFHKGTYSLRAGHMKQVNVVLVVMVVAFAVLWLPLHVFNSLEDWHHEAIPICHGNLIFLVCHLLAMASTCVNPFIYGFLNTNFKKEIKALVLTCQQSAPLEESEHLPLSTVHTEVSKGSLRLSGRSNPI

Molecule	plasma level dose relationship (anesthetized dogs)	level at time molar (in vivo [1])	level at time molar (in vivo [2])	duration of inhibition of food intake (mice; 1 μg per animal)	inhibitory effect on food intake compared with PYY3-36 (mice; 1 and 10 μg per animal)	EC50, inositol phosphate turnover (human Y1 receptor)	EC50, inositol phosphate turnover (human Y2 receptor)	EC50, inositol phosphate turnover (human Y4 receptor)
CC[C@H](C)[C@H](NC(=O)[C@H](Cc1ccc(O)cc1)NC(=O)[C@H](CCCNC(=N)N)NC(=O)[C@H](CCCNC(=N)N)NC(=O)[C@H](CC(C)C)NC(=O)[C@H](CC(=O)O)NC(=O)[C@H](C)NC(=O)[C@H](C)NC(=O)[C@H](Cc1ccc(O)cc1)NC(=O)[C@H](CCC(N)=O)NC(=O)[C@H](C)NC(=O)[C@H](CCSC)NC(=O)[C@H](CCC(N)=O)NC(=O)[C@H](CCC(=O)O)NC(=O)[C@@H]1CCCN1C(=O)[C@@H](NC(=O)[C@H](C)NC(=O)[C@H](CC(N)=O)NC(=O)[C@H](CC(=O)O)NC(=O)CNC(=O)[C@@H]1CCCN1C(=O)[C@H](Cc1ccc(O)cc1)NC(=O)[C@@H](NC(=O)[C@@H]1CCCN1C(=O)[C@H](CCC(=O)O)NC(=O)[C@H](CC(C)C)NC(=O)[C@@H]1CCCN1C(=O)[C@H](C)N)C(C)C)[C@@H](C)O)C(=O)N[C@@H](CC(N)=O)C(=O)N[C@@H](CCSC)C(=O)N[C@@H](CC(C)C)C(=O)N[C@H](C(=O)N[C@@H](CCCNC(=N)N)C(=O)N[C@@H](CCC(N)=O)C(=O)N[C@@H](CCCNC(=N)N)C(=O)N[C@@H](Cc1ccc(O)cc1)C(N)=O)[C@@H](C)O [[Gln34]PP]	linear dose relationship	100 nM	12 to 13 nM	more than 8 hours	more pronounced and long-lasting inhibitory effect			
APLEPVYPGDNATPEQMAQYAADLRRYINLLTRQRY-NH2 [[Leu30,Gln34]PP]						102 nM	8.6 nM	4.5 nM
APLEPVYPGDNATPEQMAQYAADLRHYINMLTRQRY-NH2 [[His26,Gln34]PP]						130 nM	6.1 nM	9.2 nM
